# Key:
# rNav1.3 (rat) [1] = target: rNav1.3 (rat) (UniProt P08104)
# DmI1529K (Drosophila) [2] = target: DmI1529K (Drosophila) (UniProt P35500)
# rNav1.3 (rat) [3] = target: rNav1.3 (rat) (UniProt P08104); remark: listed apart in the source
# DmD1525E (Drosophila) [4] = target: DmD1525E (Drosophila) (UniProt P35500)
# DmE1523N (Drosophila) [5] = target: DmE1523N (Drosophila) (UniProt P35500)
# rNav1.2 (rat) [6] = target: rNav1.2 (rat) (UniProt P04775)
# DmL899C (Drosophila) [7] = target: DmL899C (Drosophila) (UniProt P35500)
# DmI1529K (Drosophila) [8] = target: DmI1529K (Drosophila) (UniProt P35500); remark: listed apart in the source
# DmNav1 (Drosophila) [9] = target: DmNav1 (Drosophila) (UniProt P35500)
# mNav1.6 (mouse) [10] = target: mNav1.6 (mouse) (UniProt Q9WTU3)
# DmE896C (Drosophila) [11] = target: DmE896C (Drosophila) (UniProt P35500)
# DmD838C (Drosophila) [12] = target: DmD838C (Drosophila) (UniProt P35500)
# DmG904N (Drosophila) [13] = target: DmG904N (Drosophila) (UniProt P35500)
# [14] = target: L(1.2)DmNav1 (Drosophila) (UniProt P35500)
# DmI1534L (Drosophila) = DmI1534L (Drosophila) (UniProt P35500)
# rNav1.3 (rat) [15] = target: rNav1.3 (rat) (UniProt P08104); remark: listed apart in the source
# DmD1525E (Drosophila) [16] = target: DmD1525E (Drosophila) (UniProt P35500); remark: listed apart in the source
# DmE1523N (Drosophila) [17] = target: DmE1523N (Drosophila) (UniProt P35500); remark: listed apart in the source
# DmR1530Y (Drosophila) = DmR1530Y (Drosophila) (UniProt P35500)
# DmT1532D (Drosophila) = DmT1532D (Drosophila) (UniProt P35500)
# DmK1526L (Drosophila) = DmK1526L (Drosophila) (UniProt P35500)
# L(Dm)Nav1.2 (rat) = L(Dm)Nav1.2 (rat) (UniProt P04775)
# DmM5 (Drosophila) = DmM5 (Drosophila) (UniProt P35500)
# rNav1.2 (rat) [18] = target: rNav1.2 (rat) (UniProt P04775); remark: listed apart in the source
# DmL899C (Drosophila) [19] = target: DmL899C (Drosophila) (UniProt P35500); remark: listed apart in the source
# DmI1529K (Drosophila) [20] = target: DmI1529K (Drosophila) (UniProt P35500); remark: listed apart in the source
# DmNav1 (Drosophila) [21] = target: DmNav1 (Drosophila) (UniProt P35500); remark: listed apart in the source
# mNav1.6 (mouse) [22] = target: mNav1.6 (mouse) (UniProt Q9WTU3); remark: listed apart in the source
# DmE896C (Drosophila) [23] = target: DmE896C (Drosophila) (UniProt P35500); remark: listed apart in the source
# [24] = target: DmI1529K/R1530Y (Drosophila) (UniProt P35500)
# DmD838C (Drosophila) [25] = target: DmD838C (Drosophila) (UniProt P35500); remark: listed apart in the source
# DmG904N (Drosophila) [26] = target: DmG904N (Drosophila) (UniProt P35500); remark: listed apart in the source
substance,measurement,setting,value
BmK IT2 (natural protein),"shift of the half-maximal activation voltage (ΔV1/2) by 50 µM BmK IT2, two-electrode voltage clamp, Xenopus oocytes (data not shown)",rNav1.3 (rat) [1],-4.84 mV
same,"EC50 of BmK IT2 from the currents it induces at −40 mV (activation threshold), two-electrode voltage clamp, Xenopus oocytes (unit as printed in the text; the table gives µM)",DmI1529K (Drosophila) [2],0.0156 µM
same,"EC50 of BmK IT2 from the currents it induces at −40 mV (activation threshold), two-electrode voltage clamp, Xenopus oocytes",rNav1.3 (rat) [3],> 20 µM
same,"EC50 of BmK IT2 from the currents it induces at −40 mV (activation threshold), two-electrode voltage clamp, Xenopus oocytes",DmD1525E (Drosophila) [4],3.3 µM
same,"EC50 of BmK IT2 from the currents it induces at −40 mV (activation threshold), two-electrode voltage clamp, Xenopus oocytes",DmE1523N (Drosophila) [5],2.4 µM
same,"EC50 of BmK IT2 from the currents it induces at −40 mV (activation threshold), two-electrode voltage clamp, Xenopus oocytes",rNav1.2 (rat) [6],> 50 µM
same,"EC50 of BmK IT2 from the currents it induces at −40 mV (activation threshold), two-electrode voltage clamp, Xenopus oocytes",DmL899C (Drosophila) [7],> 35 µM
same,"EC50 of BmK IT2 from the currents it induces at −40 mV (activation threshold), two-electrode voltage clamp, Xenopus oocytes",DmI1529K (Drosophila) [8],15.6 µM
same,"EC50 of BmK IT2 from the currents it induces at −40 mV (activation threshold), two-electrode voltage clamp, Xenopus oocytes",DmNav1 (Drosophila) [9],2.9 µM
same,"EC50 of BmK IT2 from the currents it induces at −40 mV (activation threshold), two-electrode voltage clamp, Xenopus oocytes",mNav1.6 (mouse) [10],> 50 µM
same,"EC50 of BmK IT2 from the currents it induces at −40 mV (activation threshold), two-electrode voltage clamp, Xenopus oocytes",DmE896C (Drosophila) [11],> 35 µM
same,"EC50 of BmK IT2 from the currents it induces at −40 mV (activation threshold), two-electrode voltage clamp, Xenopus oocytes",DmD838C (Drosophila) [12],3.6 µM
same,"EC50 of BmK IT2 from the currents it induces at −40 mV (activation threshold), two-electrode voltage clamp, Xenopus oocytes",DmG904N (Drosophila) [13],> 50 µM
same,"shift of the half-maximal activation voltage (ΔV1/2) by 2 µM BmK IT2 with prepulse, two-electrode voltage clamp, Xenopus oocytes",[14],-12.5 mV
same,"shift of the half-maximal activation voltage (ΔV1/2) by 2 µM BmK IT2 with prepulse, two-electrode voltage clamp, Xenopus oocytes",DmI1534L (Drosophila),-7.99 mV
same,"shift of the half-maximal activation voltage (ΔV1/2) by 2 µM BmK IT2 with prepulse, two-electrode voltage clamp, Xenopus oocytes",rNav1.3 (rat) [15],0.9 mV
same,"shift of the half-maximal activation voltage (ΔV1/2) by 2 µM BmK IT2 with prepulse, two-electrode voltage clamp, Xenopus oocytes",DmD1525E (Drosophila) [16],-9.73 mV
same,"shift of the half-maximal activation voltage (ΔV1/2) by 2 µM BmK IT2 with prepulse, two-electrode voltage clamp, Xenopus oocytes",DmE1523N (Drosophila) [17],-12.1 mV
same,"shift of the half-maximal activation voltage (ΔV1/2) by 2 µM BmK IT2 with prepulse, two-electrode voltage clamp, Xenopus oocytes",DmR1530Y (Drosophila),-5.11 mV
same,"shift of the half-maximal activation voltage (ΔV1/2) by 2 µM BmK IT2 with prepulse, two-electrode voltage clamp, Xenopus oocytes",DmT1532D (Drosophila),-9.44 mV
same,"shift of the half-maximal activation voltage (ΔV1/2) by 2 µM BmK IT2 with prepulse, two-electrode voltage clamp, Xenopus oocytes",DmK1526L (Drosophila),-12.3 mV
same,"shift of the half-maximal activation voltage (ΔV1/2) by 2 µM BmK IT2 with prepulse, two-electrode voltage clamp, Xenopus oocytes",L(Dm)Nav1.2 (rat),-5.05 mV
same,"shift of the half-maximal activation voltage (ΔV1/2) by 2 µM BmK IT2 with prepulse, two-electrode voltage clamp, Xenopus oocytes",DmM5 (Drosophila),-6.56 mV
same,"shift of the half-maximal activation voltage (ΔV1/2) by 2 µM BmK IT2 with prepulse, two-electrode voltage clamp, Xenopus oocytes",rNav1.2 (rat) [18],1.14 mV
same,"shift of the half-maximal activation voltage (ΔV1/2) by 2 µM BmK IT2 with prepulse, two-electrode voltage clamp, Xenopus oocytes",DmL899C (Drosophila) [19],-1.39 mV
same,"shift of the half-maximal activation voltage (ΔV1/2) by 2 µM BmK IT2 with prepulse, two-electrode voltage clamp, Xenopus oocytes",DmI1529K (Drosophila) [20],0.12 mV
same,"shift of the half-maximal activation voltage (ΔV1/2) by 2 µM BmK IT2 with prepulse, two-electrode voltage clamp, Xenopus oocytes",DmNav1 (Drosophila) [21],-11.9 mV
same,"shift of the half-maximal activation voltage (ΔV1/2) by 2 µM BmK IT2 with prepulse, two-electrode voltage clamp, Xenopus oocytes",mNav1.6 (mouse) [22],0.32 mV
same,"shift of the half-maximal activation voltage (ΔV1/2) by 2 µM BmK IT2 with prepulse, two-electrode voltage clamp, Xenopus oocytes",DmE896C (Drosophila) [23],-1.86 mV
same,"shift of the half-maximal activation voltage (ΔV1/2) by 2 µM BmK IT2 with prepulse, two-electrode voltage clamp, Xenopus oocytes",[24],-5.06 mV
same,"shift of the half-maximal activation voltage (ΔV1/2) by 2 µM BmK IT2 with prepulse, two-electrode voltage clamp, Xenopus oocytes",DmD838C (Drosophila) [25],-10.4 mV
same,"shift of the half-maximal activation voltage (ΔV1/2) by 2 µM BmK IT2 with prepulse, two-electrode voltage clamp, Xenopus oocytes",DmG904N (Drosophila) [26],0.66 mV

# Source: paper PMC3021515
